# Laboratory results reported in IntAct's records for PubMed 31515488.
# B1: Keratin-associated protein 3-2 (Homo sapiens), Q9BYR7 (parent)
# chain: MDCCASRSCSVPTGPATTICSSDKSCRCGVCLPSTCPHTVWLLEPICCDNCPPPCHIPQPCVPTCFLLNSCQPTPGLETLNLTTFTQPCCEPCLPRGC
# B2: Tuftelin-interacting protein 11 (Homo sapiens), Q9UBB9 (parent)
# chain: MSLSHLYRDGEGRIDDDDDERENFEITDWDLQNEFNPNRQRHWQTKEEATYGVWAERDSDDERPSFGGKRARDYSAPVNFISAGLKKGAAEEAELEDSDDEEKPVKQDDFPKDFGPRKLKTGGNFKPSQKGFAGGTKSFMDFGSWERHTKGIGQKLLQKMGYVPGRGLGKNAQGIINPIEAKQRKGKGAVGAYGSERTTQSMQDFPVVDSEEEAEEEFQKELSQWRKDPSGSKKKPKYSYKTVEELKAKGRISKKLTAPQKELSQVKVIDMTGREQKVYYSYSQISHKHNVPDDGLPLQSQQLPQSGKEAKAPGFALPELEHNLQLLIDLTEQEIIQNDRQLQYERDMVVNLFHELEKMTEVLDHEERVISNLSKVLEMVEECERRMQPDCSNPLTLDECARIFETLQDKYYEEYRMSDRVDLAVAIVYPLMKEYFKEWDPLKDCTYGTEIISKWKSLLENDQLLSHGGQDLSADAFHRLIWEVWMPFVRNIVTQWQPRNCDPMVDFLDSWVHIIPVWILDNILDQLIFPKLQKEVENWNPLTDTVPIHSWIHPWLPLMQARLEPLYSPIRSKLSSALQKWHPSDSSAKLILQPWKDVFTPGSWEAFMVKNIVPKLGMCLGELVINPHQQHMDAFYWVIDWEGMISVSSLVGLLEKHFFPKWLQVLCSWLSNSPNYEEITKWYLGWKSMFSDQVLAHPSVKDKFNEALDIMNRAVSSNVGAYMQPGARENIAYLTHTERRKDFQYEAMQERREAENMAQRGIGVAASSVPMNFKDLIETKAEEHNIVFMPVIGKRHEGKQLYTFGRIVIYIDRGVVFVQGEKTWVPTSLQSLIDMAK
# partner: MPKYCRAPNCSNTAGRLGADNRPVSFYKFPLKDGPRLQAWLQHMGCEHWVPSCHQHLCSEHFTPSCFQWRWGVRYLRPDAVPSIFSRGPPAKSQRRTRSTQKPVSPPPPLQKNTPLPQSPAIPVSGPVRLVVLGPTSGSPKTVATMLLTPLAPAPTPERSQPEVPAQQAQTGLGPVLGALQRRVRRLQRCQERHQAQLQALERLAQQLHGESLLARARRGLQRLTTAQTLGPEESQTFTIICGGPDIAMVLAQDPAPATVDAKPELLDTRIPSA
# B3: Keratin, type I cuticular Ha8 (Homo sapiens), O76015 (parent)
# chain: MTSSYSSSSCPLGCTMAPGARNVSVSPIDIGCQPGAEANIAPMCLLANVAHANRVRVGSTPLGRPSLCLPPTCHTACPLPGTCHIPGNIGICGAYGENTLNGHEKETMQFLNDRLANYLEKVRQLEQENAELEATLLERSKCHESTVCPDYQSYFHTIEELQQKILCSKAENARLIVQIDNAKLAADDFRIKLESERSLRQLVEADKCGTQKLLDDATLAKADLEAQQESLKEEQLSLKSNHEQEVKILRSQLGEKLRIELDIEPTIDLNRVLGEMRAQYEAMLETNRQDVEQWFQAQSEGISLQDMSCSEELQCCQSEILELRCTVNALEVERQAQHTLKDCLQNSLCEAEDRFGTELAQMQSLISNVEEQLSEIRADLERQNQEYQVLLDVKTRLENEIATYRNLLESEDCKLPCNPCSTSPSCVTAPCAPRPSCGPCTTCGPTCGASTTGSRF
# partner: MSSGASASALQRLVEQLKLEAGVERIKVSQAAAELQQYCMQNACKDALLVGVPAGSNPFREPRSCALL
# B4: NF-kappa-B inhibitor delta (Homo sapiens), Q8NI38 (parent)
# chain: MEAGPWRVSAPPSGPPQFPAVVPGPSLEVARAHMLALGPQQLLAQDEEGDTLLHLFAARGLRWAAYAAAEVLQVYRRLDIREHKGKTPLLVAAAANQPLIVEDLLNLGAEPNAADHQGRSVLHVAATYGLPGVLLAVLNSGVQVDLEARDFEGLTPLHTAILALNVAMRPSDLCPRVLSTQARDRLDCVHMLLQMGANHTSQEIKSNKTVLHLAVQAANPTLVQLLLELPRGDLRTFVNMKAHGNTALHMAAALPPGPAQEAIVRHLLAAGADPTLRNLENEQPVHLLRPGPGPEGLRQLLKRSRVAPPGLSS
# B5: Modulator of apoptosis 1 (Homo sapiens), Q96BY2 (parent)
# chain: MTLRLLEDWCRGMDMNPRKALLIAGISQSCSVAEIEEALQAGLAPLGEYRLLGRMFRRDENRKVALVGLTAETSHALVPKEIPGKGGIWRVIFKPPDPDNTFLSRLNEFLAGEGMTVGELSRALGHENGSLDPEQGMIPEMWAPMLAQALEALQPALQCLKYKKLRVFSGRESPEPGEEEFGRWMFHTTQMIKAWQVPDVEKRRRLLESLRGPALDVIRVLKINNPLITVDECLQALEEVFGVTDNPRELQVKYLTTYQKDEEKLSAYVLRLEPLLQKLVQRGAIERDAVNQARLDQVIAGAVHKTIRRELNLPEDGPAPGFLQLLVLIKDYEAAEEEEALLQAILEGNFT
# partner: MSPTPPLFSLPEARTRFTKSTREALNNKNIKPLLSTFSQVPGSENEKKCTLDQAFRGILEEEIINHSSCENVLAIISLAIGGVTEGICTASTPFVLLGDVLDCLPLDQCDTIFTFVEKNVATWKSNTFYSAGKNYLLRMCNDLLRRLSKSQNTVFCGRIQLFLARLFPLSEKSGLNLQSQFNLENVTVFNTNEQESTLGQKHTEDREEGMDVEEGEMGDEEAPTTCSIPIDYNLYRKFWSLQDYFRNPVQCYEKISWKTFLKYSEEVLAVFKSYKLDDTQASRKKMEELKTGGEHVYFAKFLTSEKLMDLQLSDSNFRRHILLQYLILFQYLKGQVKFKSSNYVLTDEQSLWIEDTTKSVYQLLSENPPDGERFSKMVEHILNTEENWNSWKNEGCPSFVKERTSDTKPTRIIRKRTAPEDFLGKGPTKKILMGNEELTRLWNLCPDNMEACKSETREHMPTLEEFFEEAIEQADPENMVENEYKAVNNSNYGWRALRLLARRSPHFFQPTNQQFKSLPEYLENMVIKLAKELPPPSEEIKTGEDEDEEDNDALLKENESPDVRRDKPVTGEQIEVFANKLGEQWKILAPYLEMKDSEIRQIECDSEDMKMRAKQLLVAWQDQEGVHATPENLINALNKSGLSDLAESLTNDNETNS
# B6: Alpha-ketoglutarate-dependent dioxygenase alkB homolog 4 (Homo sapiens), Q9NXW9 (parent)
# chain: MAAAAAETPEVLRECGCKGIRTCLICERQRGSDPPWELPPAKTYRFIYCSDTGWAVGTEESDFEGWAFPFPGVMLIEDFVTREEEAELVRLMDRDPWKLSQSGRRKQDYGPKVNFRKQKLKTEGFCGLPSFSREVVRRMGLYPGLEGFRPVEQCNLDYCPERGSAIDPHLDDAWLWGERLVSLNLLSPTVLSMCREAPGSLLLCSAPSAAPEALVDSVIAPSRSVLCQEVEVAIPLPARSLLVLTGAARHQWKHAIHRRHIEARRVCVTFRELSAEFGPGGRQQELGQELLRIALSFQGRPV
# partner: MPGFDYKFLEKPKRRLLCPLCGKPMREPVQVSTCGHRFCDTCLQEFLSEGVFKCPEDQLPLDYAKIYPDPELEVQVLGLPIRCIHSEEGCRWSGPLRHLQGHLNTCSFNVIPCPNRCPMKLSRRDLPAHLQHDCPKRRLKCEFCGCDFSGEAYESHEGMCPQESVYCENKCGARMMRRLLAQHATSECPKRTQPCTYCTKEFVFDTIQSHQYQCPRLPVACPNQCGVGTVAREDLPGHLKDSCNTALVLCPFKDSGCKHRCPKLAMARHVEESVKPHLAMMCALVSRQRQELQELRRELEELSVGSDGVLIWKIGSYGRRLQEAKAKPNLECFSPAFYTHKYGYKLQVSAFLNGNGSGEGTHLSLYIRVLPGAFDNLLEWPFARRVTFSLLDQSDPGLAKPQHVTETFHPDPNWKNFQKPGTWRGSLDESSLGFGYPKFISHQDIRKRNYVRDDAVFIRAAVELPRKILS
# B7: Tuftelin-interacting protein 11 (Homo sapiens), Q9UBB9 (parent)
# chain: B2 chain
# partner: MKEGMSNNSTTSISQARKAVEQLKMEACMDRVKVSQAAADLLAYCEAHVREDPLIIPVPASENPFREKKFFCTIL
# Variants of: B1
# Settings: with yipf3_human YIPF3, Q9GZM5
# Sequence of yipf3_human YIPF3, Q9GZM5 (Q9GZM5 whole entry): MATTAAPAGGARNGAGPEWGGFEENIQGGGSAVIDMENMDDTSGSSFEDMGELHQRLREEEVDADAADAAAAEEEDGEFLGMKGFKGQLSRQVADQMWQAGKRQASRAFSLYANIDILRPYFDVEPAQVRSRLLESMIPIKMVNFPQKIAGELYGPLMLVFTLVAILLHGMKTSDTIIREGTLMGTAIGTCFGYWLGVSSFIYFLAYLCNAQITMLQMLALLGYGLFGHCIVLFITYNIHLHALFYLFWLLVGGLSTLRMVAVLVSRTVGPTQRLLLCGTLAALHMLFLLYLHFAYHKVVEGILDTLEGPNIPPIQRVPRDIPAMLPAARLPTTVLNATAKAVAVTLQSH
row,effect of a mutation on the interaction,Variant
1,with no effect,S8G

# Variants of: B1
# Settings: with hxa1_human HOXA1, P49639
# Sequence of hxa1_human HOXA1, P49639 (P49639 whole entry): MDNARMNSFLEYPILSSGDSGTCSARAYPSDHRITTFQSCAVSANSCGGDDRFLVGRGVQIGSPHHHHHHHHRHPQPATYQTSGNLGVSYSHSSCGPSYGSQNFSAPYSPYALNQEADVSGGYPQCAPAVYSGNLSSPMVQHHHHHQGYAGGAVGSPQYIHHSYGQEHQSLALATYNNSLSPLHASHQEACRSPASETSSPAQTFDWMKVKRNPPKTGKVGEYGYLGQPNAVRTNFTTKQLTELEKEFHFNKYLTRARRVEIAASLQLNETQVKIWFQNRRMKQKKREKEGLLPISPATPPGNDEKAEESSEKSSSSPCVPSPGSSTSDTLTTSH
row,effect of a mutation on the interaction,Variant
1,with no effect,S8G

# Variants of: B1
# Settings: with otx1_human OTX1, P32242
# Sequence of otx1_human OTX1, P32242 (P32242 whole entry): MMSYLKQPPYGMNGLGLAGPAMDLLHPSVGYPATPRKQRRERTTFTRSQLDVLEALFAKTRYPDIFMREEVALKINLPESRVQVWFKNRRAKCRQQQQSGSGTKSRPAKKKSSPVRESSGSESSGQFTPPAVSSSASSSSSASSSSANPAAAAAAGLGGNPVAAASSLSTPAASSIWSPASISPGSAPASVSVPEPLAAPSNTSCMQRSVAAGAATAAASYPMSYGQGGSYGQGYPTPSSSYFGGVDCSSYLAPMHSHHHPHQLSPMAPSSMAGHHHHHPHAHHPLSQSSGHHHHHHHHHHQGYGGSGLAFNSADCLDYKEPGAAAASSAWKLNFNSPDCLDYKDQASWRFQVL
row,effect of a mutation on the interaction,Variant
1,with no effect,S8G

# Variants of: B2
# Settings: with thap8_human THAP8, Q8NA92
row,effect of a mutation on the interaction,Variant
1,with no effect,S688L
2,with no effect,R8Q

# Variants of: B3
# Settings: with gbg10_human GNG10, P50151
row,effect of a mutation on the interaction,Variant
1,with no effect,A205S

# Variants of: B4
# Settings: with ssxt_human SS18, Q15532
# Sequence of ssxt_human SS18, Q15532 (Q15532 whole entry): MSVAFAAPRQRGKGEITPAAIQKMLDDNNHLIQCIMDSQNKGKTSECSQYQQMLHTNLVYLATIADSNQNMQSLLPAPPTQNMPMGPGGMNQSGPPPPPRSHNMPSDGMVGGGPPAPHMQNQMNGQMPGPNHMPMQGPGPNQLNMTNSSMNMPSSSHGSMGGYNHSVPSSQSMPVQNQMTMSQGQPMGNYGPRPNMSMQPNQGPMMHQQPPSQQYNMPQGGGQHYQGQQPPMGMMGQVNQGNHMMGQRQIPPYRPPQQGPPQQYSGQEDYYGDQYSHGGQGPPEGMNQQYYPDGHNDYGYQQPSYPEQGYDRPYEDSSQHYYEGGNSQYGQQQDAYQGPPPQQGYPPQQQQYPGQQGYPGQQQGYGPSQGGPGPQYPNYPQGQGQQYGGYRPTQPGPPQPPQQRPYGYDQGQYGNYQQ
row,effect of a mutation on the interaction,Variant
1,with no effect,V29A

# Variants of: B5
# Settings: with thoc1_human THOC1, Q96FV9
row,effect of a mutation on the interaction,Variant
1,with no effect,R57K

# Variants of: B6
# Settings: with traf4_human TRAF4, Q9BUZ4
row,effect of a mutation on the interaction,Variant
1,disrupting interaction strength,R239C

# Variants of: B7
# Settings: with gbg4_human GNG4, P50150
row,effect of a mutation on the interaction,Variant
1,with no effect,S688L
2,with no effect,R8Q
